Values joined by “and” are separate entries in the source; they are usually repeats but may differ in a detail not shown here. Equal entries are not always repeated.
Experiments:
[1] = target: the molecule itself; assay: MALDI-TOF mass spectrometry; sinapinic acid matrix in 70% acetonitrile, 0.05% TFA; positive ion-linear mode
[2] = target: the molecule itself; assay: SEC; 25 mL Sephacryl 200 (S-200) column, 20 mM phosphate buffer pH 7.4, 150 mM NaCl, 4 °C; refolded PKN1-(C2); calibrated column
[3] = target: the molecule itself; assay: SEC; Superdex-200 Increase (10/300 GL), 50 mM Tris-HCl pH 7.5, 150 mM NaCl, 0.075% Brij-35; native conditions

Row | Protein | stoichiometry N [1] | stoichiometry N [2] | stoichiometry N [3]
1 | PKN1-(C2)-(342–605) (domain or fragment, PKC-related serine/threonine protein kinase N1 (PKN1), rat, residues 342-605 (C2-like domain and part of the hinge region), amplified by PCR from rat liver; Cloned between NdeI and XhoI of pET15b; this vector probably adds an N-terminal His tag with a thrombin site, and no cleavage is described; also called PKN1-(342–605); histidine-tagged PKN1 (residues 342–605)) not shown | 2 | 3 and 4 | –
2 | PKN1-(25–485) (domain or fragment, PKC-related serine/threonine protein kinase N1 (PKN1), rat, residues 25-485 (HR1 and the AlphaFold-defined C2 region 310-473); The pET15b-PKN1-(25–485) plasmid was synthesized commercially; the vector probably adds an N-terminal His tag, and no cleavage is described; also called histidine-tagged PKN1 (residues 25–485)) not shown | – | – | 3
